From US11040083B2, “Polypeptides comprising vinculin binding sites for the treatment of proliferation and/or adhesion related diseases” (PARIS SCIENCES ET LETTRES—QUARTIER LATIN, priority 2015, dated 2021)
“And” between values parts separate entries of the source, which are not always exact repeats. Identical values can stand only once.

What was measured:
[1] = Size exclusion chromatography, hydrodynamic radius; assay type: physicochemical; details: for Radiusm (estimated hydrodynamic radius): SEC Superdex 75, 20 μM equimolar
Method: The purified proteins HVD1, A483, A524 and Talin H1-H4 were used at an equimolar concentration of 20 μM and incubated at 4° C. for one hour in binding buffer. The protein mixtures (200 μL) were injected in a FPLC chromatography system (FPLC Pharmacia) at 16° C. in a Superdex 75 HR 10/30 column (GE Healthcare) previously equilibrated with 10 volumes of binding buffer. The SEC system was calibrated with a Low Molecular Weight Gel Filtration Kit (ref. 17-0442-01, GE Healthcare) and the hydrodynamic radius (Angstroms) of the reference proteins (BSA, OVA, ChyA and RibA) correlated with the elution volume (Ve) using an Euler exponential equation: Hydrodynamic radius (Ang)=210.46 e^−0.189 Ve (mL), with a correlation squared coefficient of R^2=0.9973. Fractions corresponding to elution volume 8-10 mLs were recovered, and analyzed by SDS-PAGE using 15% polyacrylamide gels.

[2] = tested on: C2.7 mice myoblasts cells; experiment: Immunostaining of focal adhesions in transfected cells; assay type: cell-based; details: cells plated for 16 hours
Method: C2.7 mice myoblasts cells were seeded at 2.5×10^4 cells in 5 mm rounded cell culture coverslips. Cells were transfected with 3 μg of pcDNA3.1 NT GFP-A483 plasmid, with 6 μL JetPEI transfection reagent (Polyplus) overnight following manufacturer's recommendations. Control and GFP-A483 transfected cells were fixed (3.7% PFA-PBS), permeabilized (0.1% Triton X-100, Sigma-Aldrich) and incubated with a 1/200 monoclonal m11.5 anti-vinculin antibody (ref. V4505, Sigma-Aldrich). Coverslips were washed and incubated with a 1/200 anti-mouse secondary antibody coupled to Alexa 546 (Jackson Research) and 1/200 Phalloidin A633 (Invitrogen), washed and mounted on slides using Dako mounting medium (Invitrogen). Samples were observed using a confocal microscopy with rotary disc (Roper Scientific®). Peripheral and ventral focal adhesion sizes (vinculin) were separated in three different categories (Small/None, Medium and Large) and the size of their focal adherences scored from three independent experiments. The focal adhesion size's distributions between the control and GFP-A483 transfected cells were compared using a Pearson's Chi-squared test.

[3] = tested on: C2.7 mice myoblasts cells; experiment: Cell adhesion kinetics on fibronectin-coated surfaces; assay type: cell-based
Method: C2.7 mice myoblasts cells were seeded at 2.5×10^5 cells in a 10 cm cell culture petri dish (TPP). Cells were transfected with 15 μg of pcDNA3.1 NT GFP-A483 plasmid, with 45 μL JetPEI transfection reagent (Polyplus) overnight following manufacturer's recommendations. Control and transfected cells were detached and washed in a large volume of DMEM/Hepes (ref. 21063-045, Life Technologies) with 0.2% BSA and 50 ng/mL LPA (ref. L7260, Sigma-Aldrich) without FCS. Some 15,000 control/IpaA cells per well were seeded (DMEM/BSA/LPA, no FCS) in 24-well plates added with 5 mm rounded coverslips coated with 25 μg/mL fibronectin and blocked with 2% BSA-PBS 1×. Plates containing cells were centrifuged at 1000 g for 2 minutes, incubated at 37° C. and fixed (3.7% PFA-PBS) at different time points. Coverslips were stained with an anti-vinculin antibody+Phalloidin as described before (Immunostaining) or with a solution containing 1/200 DAPI (1 mg/mL) for number-of-cells adhesion tests. All coverslips were washed and mounted on slides using Dako mounting medium (Invitrogen) and observed using a confocal microscopy with rotary discs (Roper Scientific®).
To confirm this latter result at the scale of a whole cell population, we performed assays where cells, resuspended by trypsinization, were allowed to adhere for define amounts of time on Fn-coated substrates before washing. Then the number of cells that remained attached to the substrate was measured.

C2.7 myoblastic cells = experiment: Plating on fibronectin-coated PDMS membranes of different stiffness; assay type: cell-based; details: substrate stiffness 1.5 kPa and 15 kPa
Method: As previously observed, A483 induced the formation of large adhesion structures in C2.7 cells (FIG. 20A). While A483 transfectants induced a spectacular 5.6-fold increase in the number of adherent cells after 60 seconds of incubation, this increase was reduced to 1.3-fold when adhesion was tested after 30 min. These findings were quantified by measuring the resistance to shear stress of cells under flow as a function of the incubation time with the substrate in microfluidic chambers (FIG. 20B). Thus, through its direct binding via IpaA VBS3/TBS or indirect unveiling of binding sites on vinculin “supra-activated”, A483 may “by-pass” mechanosensing normally associated with the initial steps of cell adhesions' formation. While we cannot rule out the possibility that A483 induces an original ex-nihilo adhesion structure, our current results rather argue that it allows the bypassing of actomyosin-dependent mechanosensing steps that would lead to vinculin supra-activation at high actomyosin contraction forces. To further test this, we plated the C2.7 myoblastic cells on various fibronectin-coated PDMS membranes showing different stiffness. As expected, at low substrate stiffness (1.5 kPa), control cells remained spread and isolated, whereas at high substrate stiffness (15 kPa), cells differentiated into myotubes (FIG. 20C).

MEF cells = experiment: TIRF microscopy of focal adhesion markers after ROCK inhibitor Y-27632; assay type: cell-based; details: Paxillin, Vinculin, VASP; after Rho-kinase inhibitor Y-27632; preliminary
Text: FIG. 21 is a set of images showing that IpaA prevents the disassembly of focal adhesions induced by the relaxation of the actomyosin contraction. MEF cells were transfected with focal adhesion proteins Paxillin-Cherry (PAX), Vinculin-Cherry (VIN) or VASP-Cherry (VASP). CTRL: single transfection; A483: cells were co-transfected with GFP-A483. The intensity of focal adhesion proteins (visualized as white dots) is shown at the indicated time points in seconds after the addition of the ROCK inhibitor Y-27632 by TIRF microscopy. A483 prevents the destabilization of FA markers induced by the ROCK inhibitor observed in control cells.
In preliminary experiments, we have analyzed the role of actomyosin contraction on the recruitment of FA markers linked to the supra-activation of vinculin, by treating cells with the Rho-kinase inhibitor Y-27632. The disappearance of markers from FAs was analyzed following in real-time using total internal reflection (TIRF) microscopy. […] Strikingly, VASP, a marker of mature FAs, was also stabilized by A483, while previous studies had shown that this FA marker was not stabilized by active vinculin, deficient for head-tail intra-molecular interaction.

melanocytes = experiment: Time lapse cell migration; assay type: cell-based; details: 6 movies per sample, preliminary

B1: A524: IpaA 524-633, containing only IpaA VBS1 and VBS2 (protein, listed as Shigella flexneri)
chain: KSKDITKSTTEHRINNKLKVTDANIRNYVTETNADTIDKNHAIYEKAKEVSSALSKVLSKIDDTSAELLTDDISDLKNNNDITAENNNIYKAAKDVTTSLSKVLKNINKD
modifications: A524 / IpaA (524-633)
notes: IpaA 524-633, containing only IpaA VBS1 and VBS2
[1]
  Radiusg (hydrodynamic radius of a globular protein with the same MW): 15.36 Ang
  Radiusm/Radiusg (RH/RG ratio): 1.88
  Radiusm (estimated hydrodynamic radius): 28.93 Ang
[2]
  focal adhesions (FA) in transfected cells: not observed

B2: A483: amino acids 483 to 633 of SEQ ID NO: 1 (IpaA), containing IpaA VBS1, VBS2 and VBS3 (protein, listed as Shigella flexneri)
chain: GDTYLTRETIFEASKKVTNSLSNLISLIGTKSGTQERELQEKSKDITKSTTEHRINNKLKVTDANIRNYVTETNADTIDKNHAIYEKAKEVSSALSKVLSKIDDTSAELLTDDISDLKNNNDITAENNNIYKAAKDVTTSLSKVLKNINKD
modifications: A483 / IpaA (483-633)
[1]
  Radiusg (hydrodynamic radius of a globular protein with the same MW): 17.99 Ang
  Radiusm/Radiusg (RH/RG ratio): 1.83 and 1.80
  Radiusm (estimated hydrodynamic radius): 32.86 Ang
[3]; adhesion tested after 30 min
  increase in the number of adherent cells: 1.3 fold
[3]; after 60 seconds of incubation
  increase in the number of adherent cells: 5.6 fold
C2.7 myoblastic cells
  myotube formation: formed myotubes not only at high, but also at low substrate stiffness
MEF cells
  stabilization of FA markers: stabilization of all FA markers studied
melanocytes
  effect on cell migration / motility: strong effect on cell migration
